In US5869336A, “Recombinant enzymatically active calpain expressed in a baculovirus system” (Cephalon, Inc., priority 1997, dated 1999):

T1: recombinant human calpain I (Homo sapiens, UniProt P07384)
T1 construct: the 2153 bp fragment containing the entire human 80 kDa calpain I cDNA; made in house; host or cells: Spodoptera frugiperda Sf21 cells, recombinant baculovirus (AcNPV-hCANPI-2-5, or coinfection with AcNPV-hCANP30-5 and AcNPV-hCANPI80-5)
T1 sequence (P07384 2-714): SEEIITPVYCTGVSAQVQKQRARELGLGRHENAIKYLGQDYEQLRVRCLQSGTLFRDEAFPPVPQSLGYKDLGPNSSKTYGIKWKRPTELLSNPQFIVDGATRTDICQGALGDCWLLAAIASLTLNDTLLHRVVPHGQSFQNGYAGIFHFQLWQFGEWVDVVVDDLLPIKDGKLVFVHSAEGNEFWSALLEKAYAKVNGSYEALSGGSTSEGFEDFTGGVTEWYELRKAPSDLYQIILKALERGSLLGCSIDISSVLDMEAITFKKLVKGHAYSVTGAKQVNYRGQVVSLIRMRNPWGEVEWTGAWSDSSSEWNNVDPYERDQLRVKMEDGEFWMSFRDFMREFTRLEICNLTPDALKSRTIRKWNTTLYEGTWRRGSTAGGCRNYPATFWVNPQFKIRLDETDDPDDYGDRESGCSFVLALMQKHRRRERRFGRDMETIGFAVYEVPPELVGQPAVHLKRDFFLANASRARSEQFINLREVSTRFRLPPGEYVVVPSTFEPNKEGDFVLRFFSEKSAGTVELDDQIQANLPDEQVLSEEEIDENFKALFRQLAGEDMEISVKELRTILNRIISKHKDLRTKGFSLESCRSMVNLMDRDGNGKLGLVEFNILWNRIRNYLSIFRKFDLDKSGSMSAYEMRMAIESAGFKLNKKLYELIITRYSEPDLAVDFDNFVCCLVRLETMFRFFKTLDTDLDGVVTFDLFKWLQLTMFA
T1 sequence (P04632 1-268 partner): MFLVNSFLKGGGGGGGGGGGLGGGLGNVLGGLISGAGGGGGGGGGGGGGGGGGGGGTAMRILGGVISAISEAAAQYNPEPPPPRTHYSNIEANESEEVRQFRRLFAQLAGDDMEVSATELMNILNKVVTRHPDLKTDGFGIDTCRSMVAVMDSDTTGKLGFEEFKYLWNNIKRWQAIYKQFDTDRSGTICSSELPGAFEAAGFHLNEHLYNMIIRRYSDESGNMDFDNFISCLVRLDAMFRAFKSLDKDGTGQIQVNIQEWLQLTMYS

B1: recombinantly produced calpain: recombinant enzymatically active human calpain I, heterodimer of 80 kDa and 30 kDa subunits, expressed in a baculovirus-insect cell system (protein, UniProt P07384 2-714; P04632 1-268, looked up)
Calpain-1 catalytic subunit: SEEIITPVYCTGVSAQVQKQRARELGLGRHENAIKYLGQDYEQLRVRCLQSGTLFRDEAFPPVPQSLGYKDLGPNSSKTYGIKWKRPTELLSNPQFIVDGATRTDICQGALGDCWLLAAIASLTLNDTLLHRVVPHGQSFQNGYAGIFHFQLWQFGEWVDVVVDDLLPIKDGKLVFVHSAEGNEFWSALLEKAYAKVNGSYEALSGGSTSEGFEDFTGGVTEWYELRKAPSDLYQIILKALERGSLLGCSIDISSVLDMEAITFKKLVKGHAYSVTGAKQVNYRGQVVSLIRMRNPWGEVEWTGAWSDSSSEWNNVDPYERDQLRVKMEDGEFWMSFRDFMREFTRLEICNLTPDALKSRTIRKWNTTLYEGTWRRGSTAGGCRNYPATFWVNPQFKIRLDETDDPDDYGDRESGCSFVLALMQKHRRRERRFGRDMETIGFAVYEVPPELVGQPAVHLKRDFFLANASRARSEQFINLREVSTRFRLPPGEYVVVPSTFEPNKEGDFVLRFFSEKSAGTVELDDQIQANLPDEQVLSEEEIDENFKALFRQLAGEDMEISVKELRTILNRIISKHKDLRTKGFSLESCRSMVNLMDRDGNGKLGLVEFNILWNRIRNYLSIFRKFDLDKSGSMSAYEMRMAIESAGFKLNKKLYELIITRYSEPDLAVDFDNFVCCLVRLETMFRFFKTLDTDLDGVVTFDLFKWLQLTMFA
Calpain small subunit 1: MFLVNSFLKGGGGGGGGGGGLGGGLGNVLGGLISGAGGGGGGGGGGGGGGGGGGGGTAMRILGGVISAISEAAAQYNPEPPPPRTHYSNIEANESEEVRQFRRLFAQLAGDDMEVSATELMNILNKVVTRHPDLKTDGFGIDTCRSMVAVMDSDTTGKLGFEEFKYLWNNIKRWQAIYKQFDTDRSGTICSSELPGAFEAAGFHLNEHLYNMIIRRYSDESGNMDFDNFISCLVRLDAMFRAFKSLDKDGTGQIQVNIQEWLQLTMYS
B2: 80 kDa recombinant calpain I: recombinant 80 kDa subunit of human calpain I expressed in Sf21 cells infected with AcNPV-hCANPI80-5 (protein, UniProt P07384 2-714, looked up)
Calpain-1 catalytic subunit: SEEIITPVYCTGVSAQVQKQRARELGLGRHENAIKYLGQDYEQLRVRCLQSGTLFRDEAFPPVPQSLGYKDLGPNSSKTYGIKWKRPTELLSNPQFIVDGATRTDICQGALGDCWLLAAIASLTLNDTLLHRVVPHGQSFQNGYAGIFHFQLWQFGEWVDVVVDDLLPIKDGKLVFVHSAEGNEFWSALLEKAYAKVNGSYEALSGGSTSEGFEDFTGGVTEWYELRKAPSDLYQIILKALERGSLLGCSIDISSVLDMEAITFKKLVKGHAYSVTGAKQVNYRGQVVSLIRMRNPWGEVEWTGAWSDSSSEWNNVDPYERDQLRVKMEDGEFWMSFRDFMREFTRLEICNLTPDALKSRTIRKWNTTLYEGTWRRGSTAGGCRNYPATFWVNPQFKIRLDETDDPDDYGDRESGCSFVLALMQKHRRRERRFGRDMETIGFAVYEVPPELVGQPAVHLKRDFFLANASRARSEQFINLREVSTRFRLPPGEYVVVPSTFEPNKEGDFVLRFFSEKSAGTVELDDQIQANLPDEQVLSEEEIDENFKALFRQLAGEDMEISVKELRTILNRIISKHKDLRTKGFSLESCRSMVNLMDRDGNGKLGLVEFNILWNRIRNYLSIFRKFDLDKSGSMSAYEMRMAIESAGFKLNKKLYELIITRYSEPDLAVDFDNFVCCLVRLETMFRFFKTLDTDLDGVVTFDLFKWLQLTMFA

What was measured:
[1] = target: T1, recombinant human calpain I; experiment: Calcium-dependent protease activity (Succ-Leu-Tyr-AMC), recombinant calpain in Sf21 cell extracts; assay type: biochemical
Procedure: (§1) Sf21 cells were again seeded in 24 well plates at 1.5×10^5 cells/cm^2 and infected with either wild-type virus, coinfected with both AcNPV-hCANP30-5 and AcNPV-hCANPI80-5 (MOI of 5 for each virus), or infected with AcNPV-hCANPI-2-5 (MOI=5.7). The intracellular proteins were harvested at 40 hours after infection with 100 μl/well of the following lysis buffer: 50 mM Tris-HCl, pH 7.5, 50 mM NaCl, 1 mM EDTA, 1 mM EGTA, 5 mM β-mercaptoethanol, 0.1% Triton-100, followed by a 10 minutes centrifugation at 14,000×g at 4° C. to pellet the nuclei and some membranes. The in vitro enzyme activity of 20 μl of each extract (12.5-20 μg of total protein) was measured using the synthetic peptide substrate succinyl-leucine-tyrosine-aminomethyl coumarin (Succ-Leu-Tyr-AMC) at a 1 mM concentration with and without the addition of 5 mM CaCl2 following the procedure of Sasaki et al., J. Biol. Chem., 259:12489-12494 (1984), incorporated herein by reference. The activity obtained was compared with the enzyme activity of 2 μg of partially-purified native human calpain I produced according to the method of Siman et al., supra.
The activity in the presence of calcium was also measured with the addition of 12.5 μM calpain inhibitor I following the procedure disclosed in Sasaki et al., supra. The results are depicted in FIGS. 5a-d. In FIGS. 5a-d, open circles represent activity without calcium present. […]

[2] = system: 80 kDa subunit of recombinant calpain I; experiment: Autolytic processing of the 80 kDa subunit to the 76 kDa form (immunoblot); assay type: biochemical, human; conditions: 6.7 mM CaCl2, 5 minutes, room temperature
Procedure: The 76 kDa form is produced in the presence of calcium by autolytic cleavage and is indicative of active enzyme. Lysates from cells either infected with wild-type AcNPV, coinfected with both AcNPV-hCANP30-5 and AcNPV-hCANPI80-5 or infected with AcNPV-hCANPI-2-5 prepared in Example 5 were incubated with or without the addition of 6.7 mM
CaCl2 for 5 minutes at room temperature, stopping the reaction by adding 6.7 mM EDTA and boiling the samples in SDS-PAGE-gel-loading buffer prior to storage at -70° C. The results of PAGE of the preparations are depicted in FIGS. 6a and b. In FIGS. 6a and b, the presence and absence of calcium is indicated by a "+" or "-", respectively. […] A single band is detected in all the samples incubated with calcium (lanes 2,5, and 7), and it comigrates with the 76 kDa native human calpain I (lane 2) that has also been incubated with calcium.
FIG. 6b contains the results of an immunoblot analysis of the same samples as in 6a except that the AB#34 antibody used was generated against the first five amino acids at the N-terminus of the 76 kDa fragment (anti-LGRHEC); (Saido et al., J. Biochem. 111:81-96 (1992)). […] Both the small amounts of the endogenously-cleaved recombinant calpain I large subunit and the single abundant 76 kDa band after the addition of calcium are detected by this antiserum.

[3] = system: recombinant 80 kDa subunit of calpain I; experiment: Enzymatic activity of independently expressed 80 kDa subunit (Succ-Leu-Tyr-AMC); assay type: biochemical, human
Procedure: as §1
To determine the relative activity of the recombinantly produced 80 kDasubunit, the enzymatic activity of the subunit was examined in unfractionated extracts from Sf21 cells infected with AcNPV-hCANPI80-5. […] The same amount of enzyme activity for both the recombinant 80 kDa subunit and the recombinant calpain was then run on SDS-PAGE and the amount of each was qualitatively determined by immunoblot analysis as described in Example 4 above. As determined therefrom, approximately 4- to 5-fold more isolated 80 kDa protein is needed to give activity equivalent to that of the heterodimeric protein. Thus, the specific activity of the 80 kDa recombinant calpain I was experimentally determined to be approximately 20-25% that of the heterodimeric calpain I. This is approximately seven times greater than that of the 80 kDa subunit dissociated from native calpain I (Kikuchi et al., supra).

Row | Molecule | calcium-dependent substrate hydrolysis ([1]; 1 mM Succ-Leu-Tyr-AMC, 5 mM CaCl2, FIGS. 5c, 5d) | specific activity compared with native calpain ([1]; data not shown) | autocatalytic activation by added calcium [2] | specific activity relative to heterodimeric calpain I ([3]; 80 kDa subunit alone vs recombinant heterodimer) | specific activity relative to 80 kDa subunit dissociated from native calpain I ([3]; comparison with Kikuchi et al.) | amount of protein needed to give activity equivalent to heterodimeric protein ([3]; isolated 80 kDa protein vs heterodimer)
1 | B1 | calcium-dependent increase in substrate hydrolysis | similar | correctly autoprocessed the 80 kDa subunit to the "activated" 76 kDa form |  |  | 
2 | B2 |  |  | entire amount of the 80 kDa subunit recombinant protein is capable of being autocatalytically activated | 20-25% | approximately seven | 4- to 5 fold
